{"source": "paper PMC6160157", "key": {"[1]": {"target": "HA tri-stalk protein (HA amino acids 403-474 of the pandemic strain A/Luxembourg/43/2009(H1N1)) (Influenza A virus A/Luxembourg/43/2009(H1N1))", "assay": "crystal structure"}, "[2]": {"target": "HA tri-stalk protein (HA amino acids 403-474 of the pandemic strain A/Luxembourg/43/2009(H1N1)) (Influenza A virus A/Luxembourg/43/2009(H1N1))", "assay": "SEC"}}}
{"substance": "HA tri-stalk protein (HA amino acids 403-474 of the pandemic strain A/Luxembourg/43/2009(H1N1)) (domain or fragment)", "values": [{"measurement": "stoichiometry N", "setting": "[1]", "result": 3}, {"measurement": "stoichiometry N", "setting": "[2]", "result": 3}]}
